Laboratory results from patent US20090258001A1.

Key:
[1] = target: CD3 (CD3/TCR complex) on CD4+ and CD8+ T cells of patients (human) (UniProt P07766); experiment: flow cytometry of CD4+ T cells, anti-human IgG; Example 4 Cohort B, end of 0.2 mg infusion
[2] = target: CD3 (CD3/TCR complex) on CD4+ and CD8+ T cells of patients (human) (UniProt P07766); experiment: flow cytometry of CD4+ T cells, anti-human IgG; Example 4 Cohort C, end of 0.3 mg infusion
[3] = target: CD3 (CD3/TCR complex) on CD4+ and CD8+ T cells of patients (human) (UniProt P07766); experiment: flow cytometry of CD4+ T cells, anti-human IgG; Example 4 Cohort A*, end of 0.15 mg infusion
[4] = target: CD3 (CD3/TCR complex) on CD4+ and CD8+ T cells of patients (human) (UniProt P07766); experiment: flow cytometry of CD4+ T cells, free CD3 sites by biotinylated TRX4; Example 4 Cohort A, 0.1 mg
[5] = target: CD3 (CD3/TCR complex) on CD4+ and CD8+ T cells of patients (human) (UniProt P07766); experiment: flow cytometry of CD4+ T cells, free CD3 sites by biotinylated TRX4; Example 4 Cohort A, 0.3 mg
[6] = target: CD3 (CD3/TCR complex) on CD4+ and CD8+ T cells of patients (human) (UniProt P07766); experiment: flow cytometry of CD4+ T cells, free CD3 sites by biotinylated TRX4; Example 4 Cohort A*, 0.25 mg
[7] = target: CD3 (CD3/TCR complex) on CD4+ and CD8+ T cells of patients (human) (UniProt P07766); experiment: flow cytometry of CD4+ T cells, anti-human IgG; Example 4 Cohort A, 2 hours after 0.5 mg infusion
[8] = target: CD3 (CD3/TCR complex) on CD4+ and CD8+ T cells of patients (human) (UniProt P07766); experiment: flow cytometry, free sites by biotinylated TRX4; Example 4, 4-dose cohorts, after doses of 0.5 mg and higher
[9] = target: CD3 (CD3/TCR complex) on CD4+ and CD8+ T cells of patients (human) (UniProt P07766); experiment: flow cytometry of CD4+ T cells, free CD3 sites by biotinylated TRX4; Example 4 Cohort B, 2 hours after last infusion

Chain of UniProt P07766 (P07766 23-207, chain 1 of 3): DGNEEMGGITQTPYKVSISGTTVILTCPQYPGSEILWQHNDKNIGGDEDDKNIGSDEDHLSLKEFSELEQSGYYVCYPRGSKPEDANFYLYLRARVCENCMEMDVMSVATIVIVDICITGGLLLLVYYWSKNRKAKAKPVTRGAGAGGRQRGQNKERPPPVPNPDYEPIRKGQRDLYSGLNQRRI
Chain of UniProt P07766 (chain, as listed by the source, chain 2 of 3): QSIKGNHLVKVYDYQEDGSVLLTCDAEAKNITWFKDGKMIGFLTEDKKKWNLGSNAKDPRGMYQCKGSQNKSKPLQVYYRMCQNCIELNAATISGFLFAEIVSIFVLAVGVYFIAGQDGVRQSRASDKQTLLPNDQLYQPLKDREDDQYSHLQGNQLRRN
Chain of UniProt P07766 (chain, as listed by the source, chain 3 of 3): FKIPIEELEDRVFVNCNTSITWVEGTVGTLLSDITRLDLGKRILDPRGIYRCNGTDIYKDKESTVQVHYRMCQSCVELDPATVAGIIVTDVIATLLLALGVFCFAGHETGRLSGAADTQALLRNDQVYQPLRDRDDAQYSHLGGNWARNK

cell-bound TRX4 (MESF of anti-human IgG) [1]: 400000 MESF
cell-bound TRX4 (MESF of anti-human IgG) [2]: 600000 MESF units
cell-bound TRX4 (MESF of anti-human IgG) [3]: 800000 MESF units
percent saturation of CD3 [4]: 40%
percent saturation of CD3 [5]: 85%
percent saturation of CD3 [6]: 95%
cell-bound TRX4 (MESF of anti-human IgG) [7]: 400000 MESF units
percent saturation of CD3 [8]: > 90%
percent saturation of CD3 [9]: 70%
Substance: TRX4 antibody
